Earlier results in article PMC4896244.

Target: Connexin 43 CT (UniProt P23242)
Chain of UniProt P23242 (P23242 255-382): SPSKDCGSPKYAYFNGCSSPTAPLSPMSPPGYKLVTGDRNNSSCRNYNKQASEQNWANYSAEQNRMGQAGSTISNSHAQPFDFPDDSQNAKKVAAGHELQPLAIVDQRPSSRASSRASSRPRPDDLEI

CIP75 UBA (from UniProt Q99NB8)
Kd: 300 µM
